Consider one molecule from publication PMC8636562, “Mounting, structure and autocleavage of a type VI secretion-associated Rhs polymorphic toxin” (Nature Communications, 2021).

The target of data set [1] is T1, Rhs1 D1338N Y1351A Y1375A, C-terminally FLAG-tagged (catalytic-null mutant used for cryo-EM) (Photorhabdus laumondii (P. luminescens …, UniProt Q7N9I0 1-1471, D1338N | Y1351A | Y1375A)).
T1 construct: Rhs1 (Plu0353) of Photorhabdus laumondii with D1338N (no C-terminal autocleavage) and Y1351A, Y1375A (no toxicity); atomic model built for residues 272-1357; also called Rhs1^FL; source: E. coli BL21(DE3), co-purified with EagR (StrepTrap HP, Superose 6)
T1 sequence (looked up): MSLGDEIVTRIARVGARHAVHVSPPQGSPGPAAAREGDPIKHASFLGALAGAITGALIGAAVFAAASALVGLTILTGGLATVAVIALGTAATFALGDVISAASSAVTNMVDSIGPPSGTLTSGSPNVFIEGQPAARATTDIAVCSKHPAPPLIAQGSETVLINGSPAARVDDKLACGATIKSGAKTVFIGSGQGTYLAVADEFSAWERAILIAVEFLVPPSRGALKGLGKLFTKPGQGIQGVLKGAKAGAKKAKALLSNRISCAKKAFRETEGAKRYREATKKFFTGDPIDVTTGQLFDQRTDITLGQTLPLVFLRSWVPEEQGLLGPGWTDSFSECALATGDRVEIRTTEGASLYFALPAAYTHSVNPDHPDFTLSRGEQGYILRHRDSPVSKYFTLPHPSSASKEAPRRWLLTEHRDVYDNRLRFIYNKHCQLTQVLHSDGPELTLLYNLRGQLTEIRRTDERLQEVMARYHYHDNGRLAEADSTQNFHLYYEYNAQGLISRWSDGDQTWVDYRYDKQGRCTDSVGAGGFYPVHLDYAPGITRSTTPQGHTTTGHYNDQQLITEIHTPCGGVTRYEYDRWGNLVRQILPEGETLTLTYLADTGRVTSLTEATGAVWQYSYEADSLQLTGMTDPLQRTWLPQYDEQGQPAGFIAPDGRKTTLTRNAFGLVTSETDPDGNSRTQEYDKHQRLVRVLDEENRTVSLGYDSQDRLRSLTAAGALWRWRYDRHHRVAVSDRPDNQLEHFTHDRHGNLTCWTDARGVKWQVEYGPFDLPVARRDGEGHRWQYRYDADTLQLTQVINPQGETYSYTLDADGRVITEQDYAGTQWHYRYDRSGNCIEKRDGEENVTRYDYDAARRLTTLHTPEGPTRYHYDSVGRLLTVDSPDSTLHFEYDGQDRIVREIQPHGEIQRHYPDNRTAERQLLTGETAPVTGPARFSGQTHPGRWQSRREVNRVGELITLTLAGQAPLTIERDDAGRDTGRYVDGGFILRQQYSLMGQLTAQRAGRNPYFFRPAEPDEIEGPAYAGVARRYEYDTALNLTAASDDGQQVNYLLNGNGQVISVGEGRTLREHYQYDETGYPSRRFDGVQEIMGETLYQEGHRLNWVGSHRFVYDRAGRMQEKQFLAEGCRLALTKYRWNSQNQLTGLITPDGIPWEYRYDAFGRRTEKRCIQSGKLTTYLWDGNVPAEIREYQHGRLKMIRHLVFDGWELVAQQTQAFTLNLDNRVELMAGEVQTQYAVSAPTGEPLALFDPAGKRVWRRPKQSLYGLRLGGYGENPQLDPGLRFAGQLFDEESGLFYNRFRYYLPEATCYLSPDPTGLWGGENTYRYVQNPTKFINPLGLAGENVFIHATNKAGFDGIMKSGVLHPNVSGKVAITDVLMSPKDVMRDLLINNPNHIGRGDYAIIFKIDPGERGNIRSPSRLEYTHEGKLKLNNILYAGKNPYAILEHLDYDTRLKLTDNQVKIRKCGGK
The data set is described as follows: cryo-EM structure; EagR-Strep/Rhs1-FLAG (D1338N, Y1351A, Y1375A) complex purified by StrepTrap and Superose 6; single particle, Talos Arctica 200 kV; 3.72 Å unmasked map, 3.17 Å masked on the Rhs1 shell; EagR dimer homology model fitted in low-resolution density. The note with it: both partners purified.

Data set [2] deals with the molecule itself. Described as above.

B1: Photorhabdus laumondii EagR chaperone (Plu0354), C-terminally Strep-tagged (natural protein)
chain: MENTTYQMNEGSLAIPGNWRDESMNVFVLPDDSGINLVVSRTPVPAGMDNPAYYEQTLEQFCTHLPGYQEHQRSEITLSQQPARRLDYQWTSPEGDMYQTVILQIRGPLLLTFNLTSPAPFEAGQRDTLLAIVHSFQAA
notes: Eag (DUF1795) family chaperone EagR of Photorhabdus laumondii, Plu0354; also called ^STEagR; EagR^ST; source: E. coli BL21(DE3), co-produced, in total cell extract; also purified in complexes (Strep-Tactin resin; StrepTrap HP and Superose 6); not shown: Strep-tag, C-terminal, kept
With B1, the binding result in data set [1] and in data set [2] was “binds” in each case.
